Data: EP2479185A1 (INSTITUT PASTEUR, dated 2012)

Key:
[1] = molecular target: the molecule itself; assay: SDS-PAGE and MALDI-TOF MS of purified VAPs (self-assembly)
[2] = molecular target: the molecule itself; assay: heterologous expression in E. coli and electron microscopy of thin sections (self-assembly)

Protein	binding result [1]	binding result [2]
P98 protein of Sulfolobus islandicus rod-shaped virus 2 (SIRV2) (other, Assayed as assembled VAPs (homomultimeric pyramids) from SIRV2-infected S. islandicus; Also used here for P98 expressed from pSVA1059 in S. acidocaldarius, for which no tag is stated; The number of monomers per VAP was not measured; also called SIRV2-P98; protein 98) MAITLLEGALYGFFAVTGILVGSFVVGEIVHLYNEKQNNENFAKAVDQMSKSTVIAVESIKDTTTTAINALLNMDTLRDVNALAREKAKDQNPNTQAK	binds	–
recombinant C-terminal his-tagged P98 expressed in E. coli Rosetta(DE3)pLys from pSVA1051 (other, Found primarily in the E. coli membrane fraction, where it forms closed VAPs on the inner membrane; also called recombinant P98; E. coli 1051 expressing SIRV2-ORF98; not shown: C-terminal his tag) MAITLLEGALYGFFAVTGILVGSFVVGEIVHLYNEKQNNENFAKAVDQMSKSTVIAVESIKDTTTTAINALLNMDTLRDVNALAREKAKDQNPNTQAK	–	binds
